Usually Kd stands for a measure of binding affinity in units of concentration.

Results on one molecule are retold here after article PMC11191652 (Biomaterials science, 2024).

The assay concerns the target p300 (UniProt Q09472 1-2414). Nature of the assay: ELISA. (In general: ELISA stands for enzyme-linked immunosorbent assay.)

Sequence of p300 (Q09472 whole entry): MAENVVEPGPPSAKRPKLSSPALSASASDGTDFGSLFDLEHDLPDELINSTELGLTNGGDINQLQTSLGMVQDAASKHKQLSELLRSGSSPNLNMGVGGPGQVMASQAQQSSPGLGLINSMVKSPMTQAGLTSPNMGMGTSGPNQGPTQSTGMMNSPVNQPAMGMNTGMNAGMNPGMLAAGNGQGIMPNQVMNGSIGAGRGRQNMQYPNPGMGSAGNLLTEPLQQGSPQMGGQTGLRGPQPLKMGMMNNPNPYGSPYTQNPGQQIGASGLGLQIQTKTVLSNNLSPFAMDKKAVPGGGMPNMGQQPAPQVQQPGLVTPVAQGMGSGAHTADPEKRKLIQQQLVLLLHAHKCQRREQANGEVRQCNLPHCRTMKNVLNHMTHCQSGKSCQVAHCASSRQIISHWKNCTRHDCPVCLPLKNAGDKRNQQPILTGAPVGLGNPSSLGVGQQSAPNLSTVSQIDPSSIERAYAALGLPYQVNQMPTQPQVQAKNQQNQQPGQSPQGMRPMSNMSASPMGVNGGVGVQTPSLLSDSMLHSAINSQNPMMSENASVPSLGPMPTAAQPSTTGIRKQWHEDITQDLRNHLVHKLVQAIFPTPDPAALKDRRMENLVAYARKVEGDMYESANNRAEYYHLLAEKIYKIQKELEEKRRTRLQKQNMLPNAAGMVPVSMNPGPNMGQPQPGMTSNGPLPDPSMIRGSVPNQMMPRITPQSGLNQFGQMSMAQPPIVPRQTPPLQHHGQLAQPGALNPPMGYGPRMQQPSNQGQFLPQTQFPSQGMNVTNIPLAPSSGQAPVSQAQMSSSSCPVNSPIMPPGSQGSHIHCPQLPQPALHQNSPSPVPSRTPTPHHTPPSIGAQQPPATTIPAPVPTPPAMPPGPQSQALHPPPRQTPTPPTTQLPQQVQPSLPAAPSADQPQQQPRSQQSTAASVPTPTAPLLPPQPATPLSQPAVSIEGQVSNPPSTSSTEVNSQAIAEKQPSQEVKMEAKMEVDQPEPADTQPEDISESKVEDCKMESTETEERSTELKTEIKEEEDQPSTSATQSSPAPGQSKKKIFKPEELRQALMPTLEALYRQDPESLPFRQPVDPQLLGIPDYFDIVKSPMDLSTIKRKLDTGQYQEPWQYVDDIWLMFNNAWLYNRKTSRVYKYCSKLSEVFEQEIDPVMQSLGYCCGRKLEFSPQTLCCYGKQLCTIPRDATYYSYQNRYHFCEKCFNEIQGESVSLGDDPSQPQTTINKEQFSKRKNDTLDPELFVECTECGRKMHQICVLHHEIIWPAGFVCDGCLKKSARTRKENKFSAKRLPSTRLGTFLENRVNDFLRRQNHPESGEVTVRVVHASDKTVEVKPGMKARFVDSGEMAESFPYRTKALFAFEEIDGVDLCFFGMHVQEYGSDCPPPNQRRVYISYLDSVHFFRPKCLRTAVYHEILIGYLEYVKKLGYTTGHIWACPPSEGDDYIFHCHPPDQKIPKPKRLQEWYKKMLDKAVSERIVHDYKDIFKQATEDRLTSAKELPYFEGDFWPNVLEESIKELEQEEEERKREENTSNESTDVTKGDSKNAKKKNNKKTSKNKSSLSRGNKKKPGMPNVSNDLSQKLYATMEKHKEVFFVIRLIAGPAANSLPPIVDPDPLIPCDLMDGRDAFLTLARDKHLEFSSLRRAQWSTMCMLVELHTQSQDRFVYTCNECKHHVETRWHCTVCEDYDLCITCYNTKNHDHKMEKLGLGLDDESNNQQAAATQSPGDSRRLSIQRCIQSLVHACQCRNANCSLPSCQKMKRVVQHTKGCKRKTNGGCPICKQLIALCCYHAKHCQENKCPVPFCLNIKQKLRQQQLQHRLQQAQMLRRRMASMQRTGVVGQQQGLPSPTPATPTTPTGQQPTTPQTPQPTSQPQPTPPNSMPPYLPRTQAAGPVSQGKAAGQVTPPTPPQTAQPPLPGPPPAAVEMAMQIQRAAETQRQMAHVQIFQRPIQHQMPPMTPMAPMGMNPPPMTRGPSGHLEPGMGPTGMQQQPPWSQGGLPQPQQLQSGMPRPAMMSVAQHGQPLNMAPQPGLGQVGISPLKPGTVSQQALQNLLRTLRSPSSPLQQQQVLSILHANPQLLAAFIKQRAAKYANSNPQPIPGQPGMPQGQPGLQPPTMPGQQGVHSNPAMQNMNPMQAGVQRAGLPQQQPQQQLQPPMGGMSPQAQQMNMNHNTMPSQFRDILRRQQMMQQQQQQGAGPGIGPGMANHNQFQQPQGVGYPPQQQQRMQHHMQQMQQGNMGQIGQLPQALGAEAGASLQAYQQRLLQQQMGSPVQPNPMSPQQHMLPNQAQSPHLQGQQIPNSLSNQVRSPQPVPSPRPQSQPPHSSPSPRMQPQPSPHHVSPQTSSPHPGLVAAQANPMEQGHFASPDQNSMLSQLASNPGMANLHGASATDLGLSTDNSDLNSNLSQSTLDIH

B1: HIF1α C-terminal transactivation domain, HIF1α_(786–826) (domain or fragment, UniProt Q16665 786-826, looked up)
chain: SMDESGLPQLTSYDCEVNAPIQGSRNLLQGEELLRALDQVN
Molecule B1 gave a Kd of 14.5 nM. This counts as double-digit nanomolar.
